# Assay results taken from publication PMC12700808.
# Assays:
# [1] = target: FG repeat domain of 669 residues with non-charged spacers and 36 FSFG motifs; test: partitioning into an FG phase (confocal laser scanning microscopy); as a1 but FG phases assembled from the SLFG or the FSFG repeat domain (stocks in 4 M guanidinium hydrochloride, diluted 50-fold)
# [2] = target: Nup98-type FG domain comprising 52 perfect 12-mer GLFG repeat units (prf.GLFG52x12); test: FG phase partitioning assay
# [3] = target: Nup98-type FG domain comprising 52 perfect 12-mer GLFG repeat units (prf.GLFG52x12); test: FG phase partitioning assay; remark: listed apart in the source
# [4] = target: Nup98-type FG domain comprising 52 perfect 12-mer GLFG repeat units (prf.GLFG52x12); test: FG phase partitioning assay; remark: listed apart in the source
# [5] = fluorescence intensity at rim of FG particles
# [6] = fluorescence intensity in center of FG particles
# [7] = signal in center of FG particles
substance,measurement,setting,value
"20-nm pentamer-only spheres of CA G94D (CA P1A+G60A+G61P background), EGFP-labelled (complex)",fold reduction of partitioning against WT,[1],< 100 fold
"conical CLPs (capsid-like particles) of wild-type CA (CA-P1A), filled with sinGFP4a Q9E",response,[2]; [5],26000
same,response,[2]; [6],3400
same,response,[3]; [5],24000
same,response,[3]; [6],3500
same,percent of parent,[3]; signal at rim of FG particles,120%
same,percent of parent,[3]; [7],14%
same,percent of parent,[4]; signal at rim of FG particles,89%
same,percent of parent,[4]; [7],13%
"20-nm pentamer-only spheres of CA Q9E (CA P1A+G60A+G61P background), EGFP-labelled (complex)",fold reduction of partitioning against WT,[1],< 100 fold
"20-nm pentamer-only spheres of CA A92E (CA P1A+G60A+G61P background), EGFP-labelled (complex)",fold reduction of partitioning against WT,[1],< 100 fold
"CLPs of CA G89V, filled with sinGFP4a (complex)",fold partitioning against wild type,[1],4 fold
"conical CLPs (capsid-like particles) of wild-type CA (CA-P1A), filled with sinGFP4a R97K",response,[2]; [5],20000
same,response,[2]; [6],5000
same,percent of parent,[3]; signal at rim of FG particles,90%
same,percent of parent,[3]; [7],20%
"20-nm pentamer-only spheres of CA H87Q (CA P1A+G60A+G61P background), EGFP-labelled (complex)",fold reduction of partitioning against WT,[1],< 100 fold
